Consider one molecule from US20200400662A1 (ALX ONCOLOGY, published 2020).

For this experiment, the target named is Drug A. Put plainly: cell-based or functional assay.

B1: Fab of Antibody B (Fab, V domains shown)
VH: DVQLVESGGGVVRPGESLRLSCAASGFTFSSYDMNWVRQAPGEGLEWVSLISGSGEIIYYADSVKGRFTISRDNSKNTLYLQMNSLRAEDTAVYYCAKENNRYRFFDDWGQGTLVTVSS
VL: ETVLTQSPGTLTLSPGERATLTCRASQSVYTYLAWYQEKPGQAPRLLIYGASSRATGIPDRFSGSGSGTEFTLTISSLQSEDFAVYYCQQYYDRPPLTFGGGTKVEIK
For B1, the “hemagglutination of Drug A-coated erythrocytes with anti-IgG; molar excess of Fab that prevented it” value is 400 fold molar excess relative to Drug A.
